Results published in PMC5552956, “The PAS domains of the major sporulation kinase in Bacillus subtilis play a role in tetramer formation that is essential for the autokinase activity” (MicrobiologyOpen, 2017).
Values joined by “and” are separate entries in the source; they are usually repeats but may differ in a detail not shown here. Equal values may be shown once. One block for each molecule: values may come before it.

Tests used:
[1] = target: KinAN-GFP (Bacillus subtilis); assay: cross-linking; cell extracts of B. subtilis lacking native kinA (LB, 10 μmol/L IPTG) incubated with or without bis-maleimidohexane (BMH, sulfhydryl-specific); SDS-PAGE (10%), immunoblot with anti-GFP antibodies; sizes from a regression line of mass standards
[2] = target: KinA^ΔPAS-A-GFP (Bacillus subtilis); assay: as above
[3] = target: PAS-BC-GFP-his6 (Bacillus subtilis); assay: native gel or EMSA; blue native PAGE (4-16% gradient gel) of Ni-NTA eluates, immunoblot with anti-GFP antibodies; sizes from a regression line of NativeMark standards
[4] = target: KinAN-GFP-his6 (Bacillus subtilis); assay: as above
[5] = target: the molecule itself; assay: cross-linking; cell extracts of B. subtilis lacking native kinA (LB, 10 μmol/L IPTG) incubated with or without bis-maleimidohexane (BMH, sulfhydryl-specific); SDS-PAGE (10%), immunoblot with anti-GFP antibodies; sizes from a regression line of mass standards

Molecule: KinAN-GFP (domain or fragment)
- stoichiometry N [1]: 4

Molecule: KinAN-GFP-his6 (domain or fragment)
- stoichiometry N [4]: 4 and 2

B1: full-length KinA-GFP (natural protein, Bacillus subtilis, UniProt P16497 1-606, looked up)
chain: MEQDTQHVKPLQTKTDIHAVLASNGRIIYISANSKLHLGYLQGEMIGSFLKTFLHEEDQFLVESYFYNEHHLMPCTFRFIKKDHTIVWVEAAVEIVTTRAERTEREIILKMKVLEEETGHQSLNCEKHEIEPASPESTTYITDDYERLVENLPSPLCISVKGKIVYVNSAMLSMLGAKSKDAIIGKSSYEFIEEEYHDIVKNRIIRMQKGMEVGMIEQTWKRLDGTPVHLEVKASPTVYKNQQAELLLLIDISSRKKFQTILQKSRERYQLLIQNSIDTIAVIHNGKWVFMNESGISLFEAATYEDLIGKNIYDQLHPCDHEDVKERIQNIAEQKTESEIVKQSWFTFQNRVIYTEMVCIPTTFFGEAAVQVILRDISERKQTEELMLKSEKLSIAGQLAAGIAHEIRNPLTAIKGFLQLMKPTMEGNEHYFDIVFSELSRIELILSELLMLAKPQQNAVKEYLNLKKLIGEVSALLETQANLNGIFIRTSYEKDSIYINGDQNQLKQVFINLIKNAVESMPDGGTVDIIITEDEHSVHVTVKDEGEGIPEKVLNRIGEPFLTTKEKGTGLGLMVTFNIIENHQGVIHVDSHPEKGTAFKISFPKK
notes: Sporulation kinase KinA, Bacillus subtilis (strains derived from PY79), full length; Tetramer by BMH cross-linking; also called MF3352; source: B. subtilis lacking the native kinA gene, IPTG-inducible promoter (10 μmol/L IPTG, LB), in cell extract
- stoichiometry N [5]: 4

B2: KinA^ΔPAS-AB-GFP (domain or fragment, Bacillus subtilis, UniProt P16497 259-606, looked up)
chain: QTILQKSRERYQLLIQNSIDTIAVIHNGKWVFMNESGISLFEAATYEDLIGKNIYDQLHPCDHEDVKERIQNIAEQKTESEIVKQSWFTFQNRVIYTEMVCIPTTFFGEAAVQVILRDISERKQTEELMLKSEKLSIAGQLAAGIAHEIRNPLTAIKGFLQLMKPTMEGNEHYFDIVFSELSRIELILSELLMLAKPQQNAVKEYLNLKKLIGEVSALLETQANLNGIFIRTSYEKDSIYINGDQNQLKQVFINLIKNAVESMPDGGTVDIIITEDEHSVHVTVKDEGEGIPEKVLNRIGEPFLTTKEKGTGLGLMVTFNIIENHQGVIHVDSHPEKGTAFKISFPKK
notes: KinA of Bacillus subtilis without PAS-A and PAS-B; 'our autokinase-deficient PAS-AB mutant (aa 259-606)'; also called MF3356; source: B. subtilis lacking the native kinA gene, IPTG-inducible promoter (10 μmol/L IPTG, LB), in cell extract
- stoichiometry N [5]: 2

Further lines, results first:

- stoichiometry N [2]: 4
Molecule: KinA^ΔPAS-A-GFP (domain or fragment)

- stoichiometry N [3]: 4 and 2
Molecule: PAS-BC-GFP-his6 (domain or fragment)
